In patent US20240317834A1, “COMPOSITIONS AND METHODS FOR NEUROLOGICAL DISEASES” (CODA BIOTHERAPEUTICS, INC., priority 2020, published 2024):
Changes are numbered by the printed parent chain. Names and notes keep the numbering of the source.

Tests used:
Type in all cases: cell-based
Lenti-X 293T cells = test: YFP fluorescence quenching anion reporter plate reader assay of engineered receptors stimulated with acetylcholine or a non-native ligand; conditions: for percent quench of YFP fluorescence, 10 uM ach: acetylcholine 10 uM; for percent quench of YFP fluorescence, 100 uM ach: acetylcholine 100 uM; for percent quench of YFP fluorescence, 1 mM ach: acetylcholine 1 mM; for percent quench of YFP fluorescence, 3 mM ach: acetylcholine 3 mM
Outline: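 YFP quench was followed for about 1 min 43 s after ligand delivered in iodide-based ECS, pH 7.2. Values are end-of-read fluorescence (last 10 s) divided by the pre-ligand baseline (15 s). Cells were LX293T, transfected with receptor DNA a day before the assay.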

HEK293T cells = test: High throughput electrophysiology (IonFlux automated patch clamp), EC50 of engineered receptors to ligands
Protocol: To confirm the EC50s determined by plate reader as well as develop a better understanding of maximum current flow, the engineered receptors were subjected to high throughput electrophysiology system, as described below. For HEK293T studies, cDNAs encoding ion channels were cloned into pcDNA3.1 using standard recombination techniques. HEK293T cells from Clontech (Lenti-X™ 293T Cell Line) were cultured in DMEM supplemented with 10% FBS and 1% Pen/Strep to 40-50% confluence using standard cell culture protocols, transfected with ion channel plasmids at a concentration of 18 μg per 15 cm dish using Fugene 6, and grown for an additional 24 hours. Cells were then assayed on an electrophysiological system (IonFluxHT and/or Mercury, Fluxion Biosciences) in which dose-response relationships may be assessed through a microfluidics-based platform for establishing whole cell configurations. Ensemble plates were primed with extracellular buffer (140 mM NaCl, 5 mM KCl, 2 mM CaCl2), 1 mM MgCl2, 10 mM HEPES, and 10 mM glucose, pH 7.2 with NaOH, mOsm 310), intracellular buffer (145 mM CsCl, 2 mM CaCl2), 2 mM MgCl2, 10 mM HEPES, and 10 mM EGTA, pH 7.2 with CsOH, mOsm 305), as adapted from Lynagh and Lynch, and test compounds (stocks prepared fresh) diluted in extracellular buffer. Cells were then released from the plate with Accutase, centrifuged, resuspended in extracellular buffer, and loaded into Ensemble plates. Cells were then subjected to a standard protocol for priming, trapping, breaking, and establishing whole cell configuration, with cells held at −60 mV throughout the recording. After recording baseline, progressive doses of test compounds were applied using the IonFlux software to assess dose response relationships. Data were then analyzed off-line using custom Python scripts to convert data to .csv format, re-plot traces, and apply QC measurements to reject unstable recordings (i.e. thresholding based on access resistance and/or standard deviation in baseline, as well as artifact rejection). Peak currents were then calculated, and population data were fit using a 4-parameter logistic equation as described by the Hill Equation. Currents were measured on an automated patch clamp system (Fluxion Biosciences) following 1 second addition of drug and the EC50 values calculated are tabulated below in Table 22 below and Table 21 above (in Example 2).

rat hippocampal neurons [1] = test: Evoked rheobase shift in rat hippocampal neurons (current clamp)
Protocol: (§1) For manual patch clamp experiments, Cells plated on coverslips were visualized at 10× and 40× on an inverted fluorescence microscope (Olympus). Recordings were made with an Axopatch 200B amplifier and Digidata 1550B (Molecular Devices) at RT using 3-6 MOhm glass patch electrodes (Sutter, BF150-86-10). Unless otherwise stated, recordings were made in extracellular solution (ECS) containing: 140 mM sodium chloride, 4 mM potassium chloride, 1 mM magnesium chloride, 2 mM calcium chloride, 10 mM HEPES, and 10 mM D-(+)-glucose (pH=7.3 with sodium hydroxide, osmolarity=305−315 mOsm). An 8-line reservoir (AutoMate Scientific) in combination with an 8-channel zero-dead-volume perfusion pencil (AutoMate Scientific) was used for perfusion. Data was acquired using pClamp software (Molecular Devices). Traces were either analyzed in Clampfit (Molecular Devices) or using custom Python code. Plotting and statistics were performed in GraphPad Prism.
No holding current was applied to the membrane for cells included in the final datasets. Data acquisition settings and analysis methods were the same as for the DRG rheobase experiments.

rat hippocampal neurons [2] = test: Spontaneous firing rate of rat hippocampal neurons (current clamp)
Protocol: as §1, with “Plotting and statistics were performed in GraphPad Prism.” left out
Spontaneous activity was recorded in gapfree mode, in the presence and absence of a compound. […] For both methods, minimum height, average height, maximum height were measured and frequency was calculated as the number of events in the epoch divided by the length of time of the epoch. For Clampfit, the resting membrane potential was measured at 3 points between events and averaged for each epoch. […] For both methods, membrane potential was corrected for the calculated liquid junction potential. […]

B1: CODA536: engineered chimeric LGIC receptor, L131D, S172D in SEQ ID NO: 33 (protein)
chain: MRCSPGGVWLALAASLLHVSLQGEFQRKLYKELVKNYNPLERPVANDSQPLTVYFSLSLLQIMDVDEKNQVLTTNIWLQMSWTDHYLQWNVSEYPGVKTVRFPDGQIWKPDILLYNSADERFDATFHTNVDVNSSGHCQYLPPGIFKSSCPMDLKNFPMDVQTCKLKFGSWDYGGWSLDLQMQEADISGYIPNGEWDLVGIPGKRSERFYECCKEPYPDVTFTVTMRRRMGYYLIQMYIPSLLIVILSWISFWINMDAAPARVGLGITTVLTMTTQSSGSRASLPKVSYVKAIDIWMAVCLLFVFSALLEYAAVNFVSRQHKELLRFRRKRRHHKSPMLNLFQEDEAGEGRFNFSAYGMGPACLQAKDGISVKGANNSNTTNPPPAPSKSPEEMRKLFIQRAKKIDKISRIGFPMAFLIFNMFYWIIYKIVRREDVHNQ
modifications: synthetic sequence of chimeric LGIC
Lenti-X 293T cells; 1 nM brd
  YFP fluorescence quenching using TC-5619/Bradanicline: −1.24%
Lenti-X 293T cells; 3 nM brd
  YFP fluorescence quenching using TC-5619/Bradanicline: 0.25%
Lenti-X 293T cells; 10 nM brd
  YFP fluorescence quenching using TC-5619/Bradanicline: −2.57%
Lenti-X 293T cells; 30 nM brd
  YFP fluorescence quenching using TC-5619/Bradanicline: 0.78%
Lenti-X 293T cells; 30 nM fac
  YFP fluorescence quenching using Facinicline: 24.15
Lenti-X 293T cells; 50 nM abt
  YFP fluorescence quenching using ABT-126: −3.19%
Lenti-X 293T cells; 100 nM CNL002
  YFP fluorescence quenching using CNL002: 71.72%
Lenti-X 293T cells; 100 nM abt
  YFP fluorescence quenching using ABT-126: 7.58%
Lenti-X 293T cells; 100 nM azd0328
  YFP fluorescence quenching using AZD-0328: 51.44%
Lenti-X 293T cells; 100 nM brd
  YFP fluorescence quenching using TC-5619/Bradanicline: 4.51%
Lenti-X 293T cells; 300 nM abt
  YFP fluorescence quenching using ABT-126: −1.65%
Lenti-X 293T cells; 300 nM azd0328
  YFP fluorescence quenching using AZD-0328: 77.12%
Lenti-X 293T cells; 300 nM brd
  YFP fluorescence quenching using TC-5619/Bradanicline: 30.97%
Lenti-X 293T cells; 300 nM fac
  YFP fluorescence quenching using Facinicline: 80.17
Lenti-X 293T cells; 1 uM CNL002
  YFP fluorescence quenching using CNL002: 77.26%
Lenti-X 293T cells; 1 uM abt
  YFP fluorescence quenching using ABT-126: 31.29%
Lenti-X 293T cells; 1 uM brd
  YFP fluorescence quenching using TC-5619/Bradanicline: 44.41%
Lenti-X 293T cells; 1 uM tc6987
  YFP fluorescence quenching using TC-6987: −18.24
Lenti-X 293T cells; 10 uM fac
  YFP fluorescence quenching using Facinicline: 81.34
Lenti-X 293T cells; 10 uM tc6987
  YFP fluorescence quenching using TC-6987: −23.06
Lenti-X 293T cells; 30 uM CNL002
  YFP fluorescence quenching using CNL002: 77.5%
Lenti-X 293T cells; 30 uM azd0328
  YFP fluorescence quenching using AZD-0328: 79.26%
Lenti-X 293T cells; 30 uM fac
  YFP fluorescence quenching using Facinicline: 79.9
Lenti-X 293T cells; 500 uM tc6987
  YFP fluorescence quenching using TC-6987: −19.3
Lenti-X 293T cells; TC-6683 30 nM
  percent quench of YFP fluorescence, 30 nM TC-6683: −22.285%
Lenti-X 293T cells; TC-6683 300 nM
  percent quench of YFP fluorescence, 300 nM TC-6683: −23.926%
Lenti-X 293T cells; TC-6683 3 uM
  percent quench of YFP fluorescence, 3 uM TC-6683: −20.514%
Lenti-X 293T cells; TC-6683 30 uM
  percent quench of YFP fluorescence, 30 uM TC-6683: −3.078%
Lenti-X 293T cells; TC-6683 100 uM
  percent quench of YFP fluorescence, 100 uM TC-6683: 7.37%
Lenti-X 293T cells
  percent quench of YFP fluorescence, 10 uM ach: −12.91%
  percent quench of YFP fluorescence, 100 uM ach: −20.88%
  percent quench of YFP fluorescence, 1 mM ach: 79.85%
  percent quench of YFP fluorescence, 3 mM ach: 79.98%
HEK293T cells; ligand AZD-0328
  fold increased potency towards AZD-0328 compared with wild type receptor: at least 10 fold
HEK293T cells; ligand RG-3487
  fold increased potency towards RG-3487 compared with wild type receptor: at least 10 fold

B2: CODA1140: engineered chimeric LGIC receptor, R101F, L131N, S172D in SEQ ID NO: 33 (protein)
chain: B1 chain with R101F, D131N
modifications: synthetic sequence of chimeric LGIC
Lenti-X 293T cells; 1 nM CNL001, first column
  YFP fluorescence quenching using CNL001: 52.592%
Lenti-X 293T cells; 1 nM CNL001, second column
  YFP fluorescence quenching using CNL001: 61.248%
Lenti-X 293T cells; 1 nM CNL002
  YFP fluorescence quenching using CNL002: 0.337%
Lenti-X 293T cells; 3 nM var, first column
  YFP fluorescence quenching using Varenicline: −6.169
Lenti-X 293T cells; 3 nM var, second column
  YFP fluorescence quenching using Varenicline: −10.445
Lenti-X 293T cells; 10 nM CNL001, first column
  YFP fluorescence quenching using CNL001: 71.678%
Lenti-X 293T cells; 10 nM CNL001, second column
  YFP fluorescence quenching using CNL001: 71.881%
Lenti-X 293T cells; 10 nM CNL002
  YFP fluorescence quenching using CNL002: 59.894%
Lenti-X 293T cells; 30 nM var, first column
  YFP fluorescence quenching using Varenicline: −9.679
Lenti-X 293T cells; 30 nM var, second column
  YFP fluorescence quenching using Varenicline: −10.878
Lenti-X 293T cells; 50 nM CNL001, first column
  YFP fluorescence quenching using CNL001: 73.807%
Lenti-X 293T cells; 50 nM CNL001, second column
  YFP fluorescence quenching using CNL001: 75.649%
Lenti-X 293T cells; 50 nM CNL002
  YFP fluorescence quenching using CNL002: 76.501%
Lenti-X 293T cells; 50 nM abt
  YFP fluorescence quenching using ABT-126: −7.87%
Lenti-X 293T cells; 100 nM CNL001, first column
  YFP fluorescence quenching using CNL001: 76%
Lenti-X 293T cells; 100 nM CNL001, second column
  YFP fluorescence quenching using CNL001: 76.329%
Lenti-X 293T cells; 100 nM CNL002
  YFP fluorescence quenching using CNL002: 79.03%
Lenti-X 293T cells; 100 nM abt
  YFP fluorescence quenching using ABT-126: −5.35%
Lenti-X 293T cells; 300 nM abt
  YFP fluorescence quenching using ABT-126: −3.67%
Lenti-X 293T cells; 300 nM var, first column
  YFP fluorescence quenching using Varenicline: −9.572
Lenti-X 293T cells; 300 nM var, second column
  YFP fluorescence quenching using Varenicline: −8.873
Lenti-X 293T cells; 500 nM var, first column
  YFP fluorescence quenching using Varenicline: −14.656
Lenti-X 293T cells; 500 nM var, second column
  YFP fluorescence quenching using Varenicline: −11.304
Lenti-X 293T cells; 1 uM CNL001, first column
  YFP fluorescence quenching using CNL001: 76.168%
Lenti-X 293T cells; 1 uM CNL001, second column
  YFP fluorescence quenching using CNL001: 74.076%
Lenti-X 293T cells; 1 uM CNL002
  YFP fluorescence quenching using CNL002: 82.85%
Lenti-X 293T cells; 1 uM abt
  YFP fluorescence quenching using ABT-126: 3.64%
Lenti-X 293T cells; 1 uM var, first column
  YFP fluorescence quenching using Varenicline: −13.996
Lenti-X 293T cells; 1 uM var, second column
  YFP fluorescence quenching using Varenicline: −16.128
Lenti-X 293T cells; 10 uM abt
  YFP fluorescence quenching using ABT-126: 5.91%
Lenti-X 293T cells
  percent quench of YFP fluorescence, 10 uM ach: −20.07%
  percent quench of YFP fluorescence, 100 uM ach: −25.8%
  percent quench of YFP fluorescence, 1 mM ach: 9.02%
  percent quench of YFP fluorescence, 3 mM ach: 45%
Lenti-X 293T cells; acetylcholine 30 uM
  percent quench of YFP fluorescence, 30 uM ach: −16.92%
Lenti-X 293T cells; acetylcholine 300 uM
  percent quench of YFP fluorescence, 300 uM ach: −11.21%
Rat hippocampal neurons [1]; +CNL002 @ EC90
  Rheobase Shift Evoked; Rat Hippocampal Neurons, +CNL002 @ EC90: 296.9 ± 72.65 pA
Rat hippocampal neurons [1]; Baseline, no ligand
  Rheobase Shift Evoked; Rat Hippocampal Neurons, Baseline: 40.63 ± 10.50 pA
Rat hippocampal neurons [2]; +CNL002 @ EC90
  Firing Rate Spontaneous; Rat Hippocampal Neurons, +CNL002 @ EC90: 0.71 ± 0.29 Hz
Rat hippocampal neurons [2]; Baseline, no ligand
  Firing Rate Spontaneous; Rat Hippocampal Neurons, Baseline: 3.29 ± 0.75 Hz
